Measured values from patent US20240336672A1.

How the values were obtained:
Conditions in all cases: remark: other sources report otherwise
[1] = target: SARS-CoV-2 RBD (B.1.1.7) domain (SARS-CoV-2); assay: ELISA
[2] = target: T1, SARS-CoV-2 Spike ectodomain (tri-S), Wuhan (SARS-CoV-2), P0DTC2; assay: ELISA
[3] = target: SARS-CoV-2 RBD (B.1.351) domain (SARS-CoV-2); assay: ELISA
[4] = target: SARS-CoV-2 RBD (P.1) domain (SARS-CoV-2); assay: ELISA
[5] = target: T1, SARS-CoV-2 Spike ectodomain (tri-S), …; assay: competition ELISA, spike protein binding to ACE2 ectodomain
[6] = target: T1, SARS-CoV-2 Spike ectodomain (tri-S), …; assay: competition ELISA vs bio-Cv2.5213
[7] = target: T1, SARS-CoV-2 Spike ectodomain (tri-S), …; assay: ELISA, coated antigen
[8] = target: T1, SARS-CoV-2 Spike ectodomain (tri-S), …; assay: tri-S capture ELISA
[9] = target: T1, SARS-CoV-2 Spike ectodomain (tri-S), …; assay: competition ELISA vs bio-Cv2.3235
[10] = target: T1, SARS-CoV-2 Spike ectodomain (tri-S), …; assay: tri-S/ACE2 blocking ELISA [B]
[11] = target: T1, SARS-CoV-2 Spike ectodomain (tri-S), …; assay: competition ELISA vs bio-Cv2.1353
[12] = target: SARS-CoV-2 RBD (B.1.1.7) domain (SARS-CoV-2); assay: RBD/ACE2 blocking ELISA
[13] = target: SARS-CoV-2 RBD (B.1.351) domain (SARS-CoV-2); assay: RBD/ACE2 blocking ELISA
[14] = target: SARS-CoV-2 RBD (P.1) domain (SARS-CoV-2); assay: RBD/ACE2 blocking ELISA
[15] = target: SARS-CoV-2 RBD (B.1.1.7) domain (SARS-CoV-2); assay: RBD-ACE2 competition ELISA; design: unit not given beside the values
[16] = target: SARS-CoV-2 RBD (B.1.351) domain (SARS-CoV-2); assay: RBD-ACE2 competition ELISA; design: unit not given beside the values
[17] = target: SARS-CoV-2 RBD (P.1) domain (SARS-CoV-2); assay: RBD-ACE2 competition ELISA; design: unit not given beside the values
[18] = target: SARS-CoV-2 RBD (B.1.1.7) domain (SARS-CoV-2); assay: ELISA; design: unit not given beside the values
[19] = target: T1, SARS-CoV-2 Spike ectodomain (tri-S), …; assay: ELISA; design: unit not given beside the values
[20] = target: SARS-CoV-2 RBD (B.1.351) domain (SARS-CoV-2); assay: ELISA; design: unit not given beside the values
[21] = target: SARS-CoV-2 RBD (P.1) domain (SARS-CoV-2); assay: ELISA; design: unit not given beside the values
[22] = target: SARS-CoV-2 RBD (B.1.1.7) domain (SARS-CoV-2); assay: ELISA; design: unit not given beside the values; remark: listed apart in the source
[23] = target: SARS-CoV-2 RBD (B.1.351) domain (SARS-CoV-2); assay: ELISA; design: unit not given beside the values; remark: listed apart in the source
[24] = target: SARS-CoV-2 RBD (P.1) domain (SARS-CoV-2); assay: ELISA; design: unit not given beside the values; remark: listed apart in the source
[25] = target: SARS-CoV-2 RBD (B.1.1.7) domain (SARS-CoV-2); assay: competition ELISA, biotinylated RBD to immobilized ACE2 ectodomain
[26] = target: SARS-CoV-2 RBD (B.1.351) domain (SARS-CoV-2); assay: as above
[27] = target: SARS-CoV-2 RBD (P.1) domain (SARS-CoV-2); assay: as above
[28] = target: SARS-CoV-2 RBD (B.1.1.7) domain (SARS-CoV-2); assay: RBD-ACE2 competition ELISA; design: unit not given beside the values; remark: listed apart in the source
[29] = target: SARS-CoV-2 RBD (B.1.351) domain (SARS-CoV-2); assay: RBD-ACE2 competition ELISA; design: unit not given beside the values; remark: listed apart in the source
[30] = target: SARS-CoV-2 RBD (P.1) domain (SARS-CoV-2); assay: RBD-ACE2 competition ELISA; design: unit not given beside the values; remark: listed apart in the source

B1: Cv2.3194 (recombinant human IgG1) (antibody)
heavy: EVQLVESGGGLIQPGGSLRLSCAASGITVTSNYMSWVRQAPGKGLEWVSVIYPGGSTFYADSVKGRFTISRDNSKNTLYLQMNSLRAEDTAVYYCARDLVVYGMDVWGQGTTVTVSSASTKGPSVFPLAPSSKSTSGGTAALGCLVKDYFPEPVTVSWNSGALTSGVHTFPAVLQSSGLYSLSSVVTVPSSSLGTQTYICNVNHKPSNTKVDKKVEPKSCDKTHTCPPCPAPELLGGPSVFLFPPKPKDTLMISRTPEVTCVVVDVSHEDPEVKFNWYVDGVEVHNAKTKPREEQYNSTYRVVSVLTVLHQDWLNGKEYKCKVSNKALPAPIEKTISKAKQPREPQVYTLPPSRDELTKNQVSLTCLVKGFYPSDIAVEWESNGQPENNYKTTPPVLDSDGSFFLYSKLTVDKSRWQQGNVFSCSVMHEALHNHYTQKSLSLSPGK
light: EIVLTQSPGTLSLSPGERATLSCRASQSVSSSYLAWYQQKPGQAPRLLIYGASSRATGIPGRFSGSGSGTDFTLTISRLEPEDFAIYYCQQGVTFGGGTKVEIKRTVAAPSVFIFPPSDEQLKSGTASVVCLLNNFYPREAKVQWKVDNALQSGNSQESVTEQDSKDSTYSLSSTLTLSKADYEKHKVYACEVTHQGLSSPVTKSFNRGEC
OD405nm [1]: 3.4
OD405nm [2]: 3.5
OD405nm [3]: 3.5
OD405nm [4]: 3.4
ACE2 Block (%) [5]: 91%
% inhibition (competition) [6]: 84
ELISA OD [7]: 3.6 OD
triS ELISA (AUC) [7]: 15.8 AUC
triS Capt-ELISA [8]: 2.3
% inhibition (competition) [9]: 97
AUC of blocking [10]: 181
% inhibition (competition) [11]: 82
% binding inhibition [12]: 97%
% binding inhibition [13]: 95%
% binding inhibition [14]: 94%
AUC (RBD block.) [15]: 294
AUC (RBD block.) [16]: 335
AUC (RBD block.) [17]: 279
AUC [18]: 3
AUC [19]: 3
AUC [20]: 4
AUC [21]: 3
AUC (RBD bind.) [22]: 13
AUC [23]: 12
AUC (RBD bind.) [23]: 12
AUC (RBD bind.) [24]: 13
IC50 [25]: 0.212 µg/mL
IC90 [25]: 0.737 µg/mL
IC50 [26]: 0.206 µg/mL
IC90 [26]: 0.406 µg/mL
IC50 [27]: 0.412 µg/mL
IC90 [27]: 0.591 µg/mL
AUC (RBD block.) [28]: 147
AUC (RBD block.) [29]: 168
AUC (RBD block.) [30]: 139
